Measured values from patent US20240209078A1 (Amgen, published 2024).

B1: CH3 15-E11 CC × I2L × (G4Q)3 × scFc × (G4Q)3 × MS 15-B12 CC × I2L (bispecific antibody)
chain: QVQLVQSGAEVKKPGASVKVSCKASGYTFTNYWMNWVRQAPGQCLEWMGNIAYGVKGTNYNQKFQGRVTMTVDTSSSTAYMELSRLRSDDTAVYYCATRYFYVMDYWGQGTLVTVSSGGGGQGGGGQGGGGQDIQMTQSPSSLSASVGDRVTITCRASQDISNYLNWYQQKPGKVPKLLIYYTSRLHSGVPSRFSGSGSGTDFTLTISSLQPEDVATYYCVQYAQFPLTFGCGTKVEIKSGGGGQEVQLVESGGGLVQPGGSLKLSCAASGFTFNKYAMNWVRQAPGKGMEWVARIRSKYNNYATYYADAVKDRFTISRDDSKNTLYLQMNNLKTEDTAVYYCVRAGNFGSSYISYFAYWGQGTLVTVSSGGGGQGGGGQGGGGQQTVVTQEPSLTVSPGGTVTITCGSSTGAVTSGNYPNWIQKKPGQAPRGLIGGTKFLAPGTPARFSGSLEGGKAALTLSGVQPEDEAEYYCVLYYSNRWVFGSGTKLTVLGGGGQGGGGQGGGGQCPPCPAPELLGGPSVFLFPPKPKDTLMISRTPEVTCVVVDVSHEEPEVKFNWYVDGVEVHNAKTKPCEEQYGSTYRCVSVLTVLHQDWLNGKEYKCKVSNKALPAPIEKTISKAKGQPREPQVYTLPPSREEMTKNQVSLTCLVKGFYPSDIAVEWESNGQPENNYKTTPPVLDSDGSFFLYSKLTVDKSRWQQGNVFSCSVMHEALHNHYTQKSLSLSPGKGGGGQGGGGQGGGGQGGGGQGGGGQGGGGQCPPCPAPELLGGPSVFLFPPKPKDTLMISRTPEVTCVVVDVSHEEPEVKFNWYVDGVEVHNAKTKPCEEQYGSTYRCVSVLTVLHQDWLNGKEYKCKVSNKALPAPIEKTISKAKGQPREPQVYTLPPSREEMTKNQVSLTCLVKGFYPSDIAVEWESNGQPENNYKTTPPVLDSDGSFFLYSKLTVDKSRWQQGNVFSCSVMHEALHNHYTQKSLSLSPGKGGGGQGGGGQGGGGQQVQLQESGPGLVKPSETLSLTCTVSGGSISSSSYFWGWIRQPPGKCLEWIGNIYYSGSSNYNPSLKSRVTISVDTSKNQFSLKLSSVTAADTAVYYCARLPRGDRDAFDIWGQGTMVTVSSGGGGQGGGGQGGGGQDIVMTQSPSSLSASVGDRVTITCRASQGISNYLAWYQQKPGKVPKLLIYAASTLQSGVPSRFSGSGSGTDFTLTISSLQPEDFATYYCQQSYSTPFTFGCGTKVEIKSGGGGQEVQLVESGGGLVQPGGSLKLSCAASGFTFNKYAMNWVRQAPGKGMEWVARIRSKYNNYATYYADAVKDRFTISRDDSKNTLYLQMNNLKTEDTAVYYCVRAGNFGSSYISYFAYWGQGTLVTVSSGGGGQGGGGQGGGGQQTVVTQEPSLTVSPGGTVTITCGSSTGAVTSGNYPNWIQKKPGQAPRGLIGGTKFLAPGTPARFSGSLEGGKAALTLSGVQPEDEAEYYCVLYYSNRWVFGSGTKLTVL
B2: MS 15-B12 CC × I2L × (G4Q)3 × scFc × (G4Q)3 × CH3 15-E11 CC × I2L (bispecific antibody)
chain: QVQLQESGPGLVKPSETLSLTCTVSGGSISSSSYFWGWIRQPPGKCLEWIGNIYYSGSSNYNPSLKSRVTISVDTSKNQFSLKLSSVTAADTAVYYCARLPRGDRDAFDIWGQGTMVTVSSGGGGQGGGGQGGGGQDIVMTQSPSSLSASVGDRVTITCRASQGISNYLAWYQQKPGKVPKLLIYAASTLQSGVPSRFSGSGSGTDFTLTISSLQPEDFATYYCQQSYSTPFTFGCGTKVEIKSGGGGQEVQLVESGGGLVQPGGSLKLSCAASGFTFNKYAMNWVRQAPGKGMEWVARIRSKYNNYATYYADAVKDRFTISRDDSKNTLYLQMNNLKTEDTAVYYCVRAGNFGSSYISYFAYWGQGTLVTVSSGGGGQGGGGQGGGGQQTVVTQEPSLTVSPGGTVTITCGSSTGAVTSGNYPNWIQKKPGQAPRGLIGGTKFLAPGTPARFSGSLEGGKAALTLSGVQPEDEAEYYCVLYYSNRWVFGSGTKLTVLGGGGQGGGGQGGGGQCPPCPAPELLGGPSVFLFPPKPKDTLMISRTPEVTCVVVDVSHEEPEVKFNWYVDGVEVHNAKTKPCEEQYGSTYRCVSVLTVLHQDWLNGKEYKCKVSNKALPAPIEKTISKAKGQPREPQVYTLPPSREEMTKNQVSLTCLVKGFYPSDIAVEWESNGQPENNYKTTPPVLDSDGSFFLYSKLTVDKSRWQQGNVFSCSVMHEALHNHYTQKSLSLSPGKGGGGQGGGGQGGGGQGGGGQGGGGQGGGGQCPPCPAPELLGGPSVFLFPPKPKDTLMISRTPEVTCVVVDVSHEEPEVKFNWYVDGVEVHNAKTKPCEEQYGSTYRCVSVLTVLHQDWLNGKEYKCKVSNKALPAPIEKTISKAKGQPREPQVYTLPPSREEMTKNQVSLTCLVKGFYPSDIAVEWESNGQPENNYKTTPPVLDSDGSFFLYSKLTVDKSRWQQGNVFSCSVMHEALHNHYTQKSLSLSPGKGGGGQGGGGQGGGGQQVQLVQSGAEVKKPGASVKVSCKASGYTFTNYWMNWVRQAPGQCLEWMGNIAYGVKGTNYNQKFQGRVTMTVDTSSSTAYMELSRLRSDDTAVYYCATRYFYVMDYWGQGTLVTVSSGGGGQGGGGQGGGGQDIQMTQSPSSLSASVGDRVTITCRASQDISNYLNWYQQKPGKVPKLLIYYTSRLHSGVPSRFSGSGSGTDFTLTISSLQPEDVATYYCVQYAQFPLTFGCGTKVEIKSGGGGQEVQLVESGGGLVQPGGSLKLSCAASGFTFNKYAMNWVRQAPGKGMEWVARIRSKYNNYATYYADAVKDRFTISRDDSKNTLYLQMNNLKTEDTAVYYCVRAGNFGSSYISYFAYWGQGTLVTVSSGGGGQGGGGQGGGGQQTVVTQEPSLTVSPGGTVTITCGSSTGAVTSGNYPNWIQKKPGQAPRGLIGGTKFLAPGTPARFSGSLEGGKAALTLSGVQPEDEAEYYCVLYYSNRWVFGSGTKLTVL
B3: MS 15-B12 CC × I2L × G4 × scFc × G4 × CH3 15-E11 CC × I2L_GQ (bispecific antibody)
chain: QVQLQESGPGLVKPSETLSLTCTVSGGSISSSSYFWGWIRQPPGKCLEWIGNIYYSGSSNYNPSLKSRVTISVDTSKNQFSLKLSSVTAADTAVYYCARLPRGDRDAFDIWGQGTMVTVSSGGGGQGGGGQGGGGQDIVMTQSPSSLSASVGDRVTITCRASQGISNYLAWYQQKPGKVPKLLIYAASTLQSGVPSRFSGSGSGTDFTLTISSLQPEDFATYYCQQSYSTPFTFGCGTKVEIKSGGGGQEVQLVESGGGLVQPGGSLKLSCAASGFTFNKYAMNWVRQAPGKGMEWVARIRSKYNNYATYYADAVKDRFTISRDDSKNTLYLQMNNLKTEDTAVYYCVRAGNFGSSYISYFAYWGQGTLVTVSSGGGGQGGGGQGGGGQQTVVTQEPSLTVSPGGTVTITCGSSTGAVTSGNYPNWIQKKPGQAPRGLIGGTKFLAPGTPARFSGSLEGGKAALTLSGVQPEDEAEYYCVLYYSNRWVFGSGTKLTVLGGGGCPPCPAPELLGGPSVFLFPPKPKDTLMISRTPEVTCVVVDVSHEEPEVKFNWYVDGVEVHNAKTKPCEEQYGSTYRCVSVLTVLHQDWLNGKEYKCKVSNKALPAPIEKTISKAKGQPREPQVYTLPPSREEMTKNQVSLTCLVKGFYPSDIAVEWESNGQPENNYKTTPPVLDSDGSFFLYSKLTVDKSRWQQGNVFSCSVMHEALHNHYTQKSLSLSPGKGGGGQGGGGQGGGGQGGGGQGGGGQGGGGQCPPCPAPELLGGPSVFLFPPKPKDTLMISRTPEVTCVVVDVSHEEPEVKFNWYVDGVEVHNAKTKPCEEQYGSTYRCVSVLTVLHQDWLNGKEYKCKVSNKALPAPIEKTISKAKGQPREPQVYTLPPSREEMTKNQVSLTCLVKGFYPSDIAVEWESNGQPENNYKTTPPVLDSDGSFFLYSKLTVDKSRWQQGNVFSCSVMHEALHNHYTQKSLSLSPGKGGGGQVQLVQSGAEVKKPGASVKVSCKASGYTFTNYWMNWVRQAPGQCLEWMGNIAYGVKGTNYNQKFQGRVTMTVDTSSSTAYMELSRLRSDDTAVYYCATRYFYVMDYWGQGTLVTVSSGGGGQGGGGQGGGGQDIQMTQSPSSLSASVGDRVTITCRASQDISNYLNWYQQKPGKVPKLLIYYTSRLHSGVPSRFSGSGSGTDFTLTISSLQPEDVATYYCVQYAQFPLTFGCGTKVEIKSGGGGQEVQLVESGGGLVQPGGSLKLSCAASGFTFNKYAMNWVRQAPGKGMEWVARIRSKYNNYATYYADAVKDRFTISRDDSKNTLYLQMNNLKTEDTAVYYCVRAGNFGSSYISYFAYWGQGTLVTVSSGGGGQGGGGQGGGGQQTVVTQEPSLTVSPGGTVTITCGSSTGAVTSGNYPNWIQKKPGQAPRGLIGGTKFLAPGTPARFSGSLEGGKAALTLSGVQPEDEAEYYCVLYYSNRWVFGSGTKLTVL

These binders were tested against T1, human MSLN (mesothelin) (human, UniProt Q13421 37-598) (assay: cell-based or functional assay).

Binder | cytotoxicity EC50, GSU KO CDH3 cells [nM]
B1 | 0.171
B2 | 2.9
B3 | 0.115

These binders were tested against T2, human CDH3 (Cadherin-3, P-Cadherin) (human, UniProt P22223 108-829) (assay: cell-based or functional assay).

Binder | cytotoxicity EC50, GSU KO MSLN cells [nM]
B1 | 3.33
B2 | 1.73
B3 | 0.502

Target: T1, human MSLN (mesothelin)
Assay: cell-based or functional assay
Remark: another data set of the same source

Binder | cytotoxicity EC50, HCT 116 KO CDH3 cells [nM]
B1 | 0.0226
B2 | 0.0292
B3 | 0.0445

Target: T2, human CDH3 (Cadherin-3, P-Cadherin)
Assay: cell-based or functional assay
Remark: another data set of the same source

Binder | cytotoxicity EC50, HCT 116 KO MSLN cells [nM]
B1 | 0.0085
B2 | 0.0035
B3 | 0.001
